# Measured values: US8541373B2, “BChE albumin fusions for the treatment of cocaine abuse” (priority 2009, dated 2013)
# System: cocaine
# Assay: Plasma cocaine, benzoylecgonine and ecgonine methyl ester (LC-MS) and cocaine PK after IV cocaine post-AlbuBChE
# Format: in vivo, cynomolgus monkeys
# Settings: for Ecgonine methyl ester plasma concentration (mean) / Mean benzoylecgonine plasma concentration / Mean cocaine plasma concentration / Mean benzoylecgonine AUC(0-t) / Mean cocaine AUC % Extrap / Mean cocaine AUC(0-t) / Mean cocaine AUC(0-∞) / Mean cocaine C0 / Mean cocaine CI / Mean cocaine Vss / Mean cocaine t½: 5 mg/kg IM
# Protocol: Blood was placed into K2EDTA blood collection tubes with esterase inhibitor diisopropylfluorophosphate (DFP). Tubes were inverted several times and placed on wet ice upon collection. Samples were centrifuged at 2-8° C. within 45 minutes of collection. The resultant plasma was recovered and a single 200 μL aliquot of plasma was placed into polypropylene tubes. Plasma samples were frozen over dry ice and stored at −75±15° C.
# The following outline describes the LC-MS-based assay employed for the measurement of cocaine in plasma samples. Prior to MS analysis, plasma samples, calibration standards and controls were extracted using supported liquid extraction (SLE-ISOLUTE, Biotage). Twenty-five microliters of samples (25 μL) received 150 μl of 5% Ammonium hydroxide and 25 μl internal standard solution (Cocaine-d3). After mixing and transfer to SLE plate, samples were eluted with methylene chloride and evaporated to dryness. After resuspension in 50 μl of reconstitution solution—5% ACM in 10 mM ammonium acetate in water, 10 μl was injected onto Thermo Hypercarb column at 0.5 ml/min. Mobile phase was biphasic. Mass spectrophotometric detection was performed using Api 4000, APCI positive interface and Multiple Reaction Monitoring (MRM). Plasma concentrations of cocaine, benzoylecgonine and ecgonine methyl ester were determined using this assay.
# When the data permits, pharmacokinetic parameter values for cocaine and its metabolites were determined using plasma concentration-times profiles for individual animals at all the study days of cocaine administration. […] Specifically the model for non-compartmental analysis with IV bolus input for cocaine and extravascular input for the metabolites.
# [1] = cocaine 1 mg/kg IV 48 hr post-AlbuBChE, 10 min after cocaine
# [2] = cocaine 1 mg/kg IV 48 hr post-AlbuBChE, 15 min after cocaine
# [3] = cocaine 1 mg/kg IV 48 hr post-AlbuBChE, 20 min after cocaine
# [4] = cocaine 1 mg/kg IV 48 hr post-AlbuBChE, 30 min after cocaine
# [5] = cocaine 1 mg/kg IV 48 hr post-AlbuBChE, 40 min after cocaine
# [6] = cocaine 1 mg/kg IV 48 hr post-AlbuBChE, 60 min after cocaine
# [7] = cocaine 1 mg/kg IV 96 hr post-AlbuBChE
# [8] = cocaine 1 mg/kg IV 96 hr post-AlbuBChE, 5 min after cocaine
# [9] = cocaine 1 mg/kg IV 96 hr post-AlbuBChE, 10 min after cocaine
# [10] = cocaine 1 mg/kg IV 96 hr post-AlbuBChE, 15 min after cocaine
# [11] = cocaine 1 mg/kg IV 96 hr post-AlbuBChE, 20 min after cocaine
# [12] = cocaine 1 mg/kg IV 96 hr post-AlbuBChE, 30 min after cocaine
# [13] = cocaine 1 mg/kg IV 96 hr post-AlbuBChE, 40 min after cocaine
# [14] = cocaine 1 mg/kg IV 96 hr post-AlbuBChE, 60 min after cocaine
# [15] = cocaine 1 mg/kg IV 120 hr post-AlbuBChE
# [16] = cocaine 1 mg/kg IV 120 hr post-AlbuBChE, 5 min after cocaine
# [17] = cocaine 1 mg/kg IV 120 hr post-AlbuBChE, 10 min after cocaine
# [18] = cocaine 1 mg/kg IV 120 hr post-AlbuBChE, 15 min after cocaine
# [19] = cocaine 1 mg/kg IV 120 hr post-AlbuBChE, 20 min after cocaine
# [20] = cocaine 1 mg/kg IV 120 hr post-AlbuBChE, 30 min after cocaine
# [21] = cocaine 1 mg/kg IV 120 hr post-AlbuBChE, 40 min after cocaine
# [22] = cocaine 1 mg/kg IV 120 hr post-AlbuBChE, 60 min after cocaine
# [23] = cocaine 1 mg/kg IV 240 hr post-AlbuBChE
# [24] = cocaine 1 mg/kg IV 240 hr post-AlbuBChE, 5 min after cocaine
# [25] = cocaine 1 mg/kg IV 240 hr post-AlbuBChE, 10 min after cocaine
# [26] = cocaine 1 mg/kg IV 240 hr post-AlbuBChE, 15 min after cocaine
# [27] = cocaine 1 mg/kg IV 240 hr post-AlbuBChE, 20 min after cocaine
# [28] = cocaine 1 mg/kg IV 240 hr post-AlbuBChE, 30 min after cocaine
# [29] = cocaine 1 mg/kg IV 240 hr post-AlbuBChE, 40 min after cocaine
# [30] = cocaine 1 mg/kg IV 240 hr post-AlbuBChE, 60 min after cocaine
substance,measurement,setting,value
AlbuBChE,Ecgonine methyl ester plasma concentration (mean),[1],68.9 ng/mL
same,Mean benzoylecgonine plasma concentration,[1],21.0 ng/mL
same,Mean cocaine plasma concentration,[1],89.9 ng/mL
same,Ecgonine methyl ester plasma concentration (mean),[2],102 ng/mL
same,Mean benzoylecgonine plasma concentration,[2],24.4 ng/mL
same,Mean cocaine plasma concentration,[2],82.7 ng/mL
same,Ecgonine methyl ester plasma concentration (mean),[3],107 ng/mL
same,Mean benzoylecgonine plasma concentration,[3],23.7 ng/mL
same,Mean cocaine plasma concentration,[3],49.5 ng/mL
same,Ecgonine methyl ester plasma concentration (mean),[4],108 ng/mL
same,Mean benzoylecgonine plasma concentration,[4],25.9 ng/mL
same,Mean cocaine plasma concentration,[4],36.7 ng/mL
same,Ecgonine methyl ester plasma concentration (mean),[5],106 ng/mL
same,Mean benzoylecgonine plasma concentration,[5],25.5 ng/mL
same,Mean cocaine plasma concentration,[5],18.9 ng/mL
same,Ecgonine methyl ester plasma concentration (mean),[6],108 ng/mL
same,Mean benzoylecgonine plasma concentration,[6],24.4 ng/mL
same,Mean cocaine plasma concentration,[6],5.74 ng/mL
same,Mean benzoylecgonine AUC(0-t),[7],3222 ng·min/mL
same,Mean cocaine AUC % Extrap,[7],14.2%
same,Mean cocaine AUC(0-t),[7],6624 ng·min/mL
same,Mean cocaine AUC(0-∞),[7],7729 ng·min/mL
same,Mean cocaine C0,[7],190 ng/mL
same,Mean cocaine CI,[7],129 mL/min/kg
same,Mean cocaine Vss,[7],4.111 L/kg
same,Mean cocaine t½,[7],21.3 min
same,Ecgonine methyl ester plasma concentration (mean),[8],100 ng/mL
same,Mean benzoylecgonine plasma concentration,[8],44.2 ng/mL
same,Mean cocaine plasma concentration,[8],176 ng/mL
same,Ecgonine methyl ester plasma concentration (mean),[9],60.9 ng/mL
same,Mean benzoylecgonine plasma concentration,[9],43.5 ng/mL
same,Mean cocaine plasma concentration,[9],166 ng/mL
same,Ecgonine methyl ester plasma concentration (mean),[10],82.2 ng/mL
same,Mean benzoylecgonine plasma concentration,[10],49.7 ng/mL
same,Mean cocaine plasma concentration,[10],174 ng/mL
same,Ecgonine methyl ester plasma concentration (mean),[11],104 ng/mL
same,Mean benzoylecgonine plasma concentration,[11],51.1 ng/mL
same,Mean cocaine plasma concentration,[11],136 ng/mL
same,Ecgonine methyl ester plasma concentration (mean),[12],111 ng/mL
same,Mean benzoylecgonine plasma concentration,[12],56.1 ng/mL
same,Mean cocaine plasma concentration,[12],99.0 ng/mL
same,Ecgonine methyl ester plasma concentration (mean),[13],126 ng/mL
same,Mean benzoylecgonine plasma concentration,[13],57.7 ng/mL
same,Mean cocaine plasma concentration,[13],80.6 ng/mL
same,Ecgonine methyl ester plasma concentration (mean),[14],127 ng/mL
same,Mean benzoylecgonine plasma concentration,[14],60.5 ng/mL
same,Mean cocaine plasma concentration,[14],35.2 ng/mL
same,Mean benzoylecgonine AUC(0-t),[15],3624 ng·min/mL
same,Mean cocaine AUC % Extrap,[15],14.5%
same,Mean cocaine AUC(0-t),[15],9378 ng·min/mL
same,Mean cocaine AUC(0-∞),[15],11046 ng·min/mL
same,Mean cocaine C0,[15],411 ng/mL
same,Mean cocaine CI,[15],93.0 mL/min/kg
same,Mean cocaine Vss,[15],2.857 L/kg
same,Mean cocaine t½,[15],22.3 min
same,Ecgonine methyl ester plasma concentration (mean),[16],45.5 ng/mL
same,Mean benzoylecgonine plasma concentration,[16],44.6 ng/mL
same,Mean cocaine plasma concentration,[16],298 ng/mL
same,Ecgonine methyl ester plasma concentration (mean),[17],46.0 ng/mL
same,Mean benzoylecgonine plasma concentration,[17],47.5 ng/mL
same,Mean cocaine plasma concentration,[17],217 ng/mL
same,Ecgonine methyl ester plasma concentration (mean),[18],96.5 ng/mL
same,Mean benzoylecgonine plasma concentration,[18],50.3 ng/mL
same,Mean cocaine plasma concentration,[18],216 ng/mL
same,Ecgonine methyl ester plasma concentration (mean),[19],60.1 ng/mL
same,Mean benzoylecgonine plasma concentration,[19],57.3 ng/mL
same,Mean cocaine plasma concentration,[19],161 ng/mL
same,Ecgonine methyl ester plasma concentration (mean),[20],79.9 ng/mL
same,Mean benzoylecgonine plasma concentration,[20],63.6 ng/mL
same,Mean cocaine plasma concentration,[20],139 ng/mL
same,Ecgonine methyl ester plasma concentration (mean),[21],122 ng/mL
same,Mean benzoylecgonine plasma concentration,[21],69.5 ng/mL
same,Mean cocaine plasma concentration,[21],113 ng/mL
same,Ecgonine methyl ester plasma concentration (mean),[22],187 ng/mL
same,Mean benzoylecgonine plasma concentration,[22],69.2 ng/mL
same,Mean cocaine plasma concentration,[22],49.5 ng/mL
same,Mean benzoylecgonine AUC(0-t),[23],5088 ng·min/mL
same,Mean cocaine AUC % Extrap,[23],29.2%
same,Mean cocaine AUC(0-t),[23],12952 ng·min/mL
same,Mean cocaine AUC(0-∞),[23],18578 ng·min/mL
same,Mean cocaine C0,[23],424 ng/mL
same,Mean cocaine CI,[23],55.6 mL/min/kg
same,Mean cocaine Vss,[23],2.637 L/kg
same,Mean cocaine t½,[23],33.8 min
same,Ecgonine methyl ester plasma concentration (mean),[24],127 ng/mL
same,Mean benzoylecgonine plasma concentration,[24],44.9 ng/mL
same,Mean cocaine plasma concentration,[24],346 ng/mL
same,Ecgonine methyl ester plasma concentration (mean),[25],26.1 ng/mL
same,Mean benzoylecgonine plasma concentration,[25],56.4 ng/mL
same,Mean cocaine plasma concentration,[25],283 ng/mL
same,Ecgonine methyl ester plasma concentration (mean),[26],30.7 ng/mL
same,Mean benzoylecgonine plasma concentration,[26],71.9 ng/mL
same,Mean cocaine plasma concentration,[26],283 ng/mL
same,Ecgonine methyl ester plasma concentration (mean),[27],35.1 ng/mL
same,Mean benzoylecgonine plasma concentration,[27],83.4 ng/mL
same,Mean cocaine plasma concentration,[27],226 ng/mL
same,Ecgonine methyl ester plasma concentration (mean),[28],49.6 ng/mL
same,Mean benzoylecgonine plasma concentration,[28],88.4 ng/mL
same,Mean cocaine plasma concentration,[28],211 ng/mL
same,Ecgonine methyl ester plasma concentration (mean),[29],53.1 ng/mL
same,Mean benzoylecgonine plasma concentration,[29],101 ng/mL
same,Mean cocaine plasma concentration,[29],161 ng/mL
same,Ecgonine methyl ester plasma concentration (mean),[30],58.0 ng/mL
same,Mean benzoylecgonine plasma concentration,[30],108 ng/mL
same,Mean cocaine plasma concentration,[30],111 ng/mL
same,AlbuBChE activity (cocaine concentrations vs Day 1 control),"240 hr post-AlbuBChE administration of 0.2, 1 or 5 mg/kg",not active
